{"source": "patent US11708423B2", "about": "“Chimeric engulfment receptor molecules and methods of use” (CERO THERAPEUTICS, INC., priority 2017, dated 2023)", "key": {"[1]": {"tested_on": "human primary B cells", "assay": "Gene expression profile (activation state) of CER21+ B cells", "type": "cell-based", "conditions": "CD40, CD40L, RANTES, CXCL10, CXCL11, LTα, TNFa", "description": "To evaluate the activation state of CER21+ human primary B cells, gene expression profiles were examined from transduced B cell populations."}, "[2]": {"tested_on": "dexamethasone pre-treated thymocytes", "assay": "Phagocytosis of thymocytes by CER Ba/F3 cells in presence or absence of Racl inhibitor", "type": "cell-based", "conditions": "Ba/F3 cells, 6 hour co-culture"}}}
{"molecule": "CER21: Tim4 binding and transmembrane domains, TLR8 signaling domain; SEQ ID NO:88 (protein, CER21 chimeric engulfment receptor) MSKGLLLLWLVTELWWLYLTPAASEDTIIGFLGQPVTLPCHYLSWSQSRNSMCWGKGSCPNSKCNAELLRTDGTRIISRKSTKYTLLGKVQFGEVSLTISNTNRGDSGVYCCRIEVPGWFNDVKKNVRLELRRATTTKKPTTTTRPTTTPYVTTTTPELLPTTVMTTSVLPTTTPPQTLATTAFSTAVTTCPSTTPGSFSQETTKGSAFTTESETLPASNHSQRSMMTISTDIAVLRPTGSNPGILPSTSQLTTQKTTLTTSESLQKTTKSHQINSRQTILIIACCVGFVLMVLLFLAFLHHLFYWDVWFIYNVCLAKVKGYRSLSTSQTFYDAYISYDTKDASVTDWVINELRYHLEESRDKNVLLCLEERDWDPGLAIIDNLMQSINQSKKTVFVLTKKYAKSWNFKTAFYLALQRLMDENMDVIIFILLEPVLQHSQYLRLRQRICKSSILQWPDNPKAEGLFWQTLRNVVLTENDSRYNNMYVDSIKQY", "values": [{"measurement": "activation state (B cell mRNA levels compared to transduced control B cells)", "setting": "[1]", "result": "promoted B cell activation molecules and survival factors"}, {"measurement": "pHrodo+ signal (phagocytosis of thymocytes), FACS", "setting": "[2]", "result": "considerable pHrodo+ signal indicating phagocytosis of target thymocytes"}]}
